Six compounds from article PMC12678802, “Tudor-based proteomic strategy pan-specifically enriches and identifies protein arginine methylation” (EMBO Reports, 2025) can be followed below.

The target in assay [1] is T1, SMN Tudor domain (SMN) (Homo sapiens, UniProt Q16637).
T1 construct: gene SMN1; SMN Tudor domain (80–167 aa), C-terminal His6-tag
In words: isothermal titration calorimetry (ITC), […] model, N fixed at […]. The format is binding. In general terms: ITC needs no label: the signal is the heat of the interaction.

Assay [2] deals with SMN Tudor domain (80-167 aa) with a C-terminal His6-tag (UniProt Q16637). The assay can be described thus: ITC; 2 mM or 5 mM ligand in the syringe injected into 200 uM or 300 uM SMN Tudor in the cell; 1x PBS, 25 °C; one site model with stoichiometry (N) fixed at 1.

Where two headings read alike, the source gives them in different places. Where only a bound is given, the exact number is not on record here.

Chain of SMN Tudor domain (80-167 aa) with a C-terminal His6-tag (Q16637 80-167): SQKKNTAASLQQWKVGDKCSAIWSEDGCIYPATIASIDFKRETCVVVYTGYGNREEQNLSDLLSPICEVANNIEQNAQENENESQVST
T1 sequence (Q16637 80-167): as above

In turn, `CNC(=N)NCCC[C@H](N)C(=O)O` [MMA, Methylarginine (L-NMMA)] returned a Kd in assay [1] of 1800 ± 322 µM.

For the compound `CN(C)C(=N)NCCC[C@H](N)C(=O)O` [aDMA, Asymmetric dimethylarginine], the Kd in assay [1] (read-out: KD) was 860 ± 34 µM.

`CN=C(NC)NCCC[C@H](N)C(=O)O` [sDMA, Symmetric dimethylarginine]: the Kd in assay [1] (read-out: KD) is 359 ± 45 µM.

In turn, “SmD1 heptapeptide AGRGRGR, residues 96–102 of SmD1” registered a Kd in assay [2] greater than 2000 µM.

In the case of “SmD1-aDMA heptapeptide AGRme2aGRGR, residues 96–102 of SmD1”, in assay [2], the Kd was determined as 834 µM and the dH is -8.02 kcal/mol.

In assay [2], “SmD1-sDMA heptapeptide AGRme2sGRGR, residues 96–102 of SmD1” registered a Kd of 375 µM and a dH of -14.5 kcal/mol.

One may read the Kd as the constant that tells how readily two partners part at equilibrium.
